Data: the supplement of paper PMC11908140

B1: library; numbered along this chain (parent)
chain: MRKPRAAVGSGHRKQAASQEGRQKHAKNNSQAKPSACDGLARQPEEVVLQASVSSYHLFRDVAEVTAFRGSLLSWYDQEKRDLPWRRRAEDEMDLDRRAYAVWVSEVMLQQTQVATVINYYTGWMQKWPTLQDLASASLEEVNQLWAGLGYYSRGRRLQEGARKVVEELGGHMPRTAETLQQLLPGVGRYTAGAIASIAFGQATGVVDGNVARVLCRVRAIGADPSSTLVSQQLWGLAQQLVDPARPGDFNQAAMELGATVCTPQRPLCSQCPVESLCRARQRVEQEQLLASGSLSGSPDVEECAPNTGQCHLCLPPSEPWDQTLGVVNFPRKASRKPPREESSATCVLEQPGALGAQILLVQRPNSGLLAGLWEFPSVTWEPSEQLQRKALLQELQRWAGPLPATHLRHLGEVVHTFSHIKLTYQVYGLALEGQTPVTTVPPGARWLTQEEFHTAAVSTAMKKVFRVYQGQQPGTCMGSKRSQVSSPCSRKKPRMGQQVLDNFFRSHISTDAHSLNSAAQ

Variants of: B1
Assay: 8OG:A repair function score (normalized; synonymous = 0, nonsense = -1) (normalized log-likelihood score); higher = more repair activity (WT-like)
Conditions: with 8OG:A DNA repair reporter (GFP) in HEK-293 MUTYH KO cells
Description: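 Saturation mutagenesis (NNN codon scan) of the MUTYH cDNA (521-aa nuclear isoform NM_001048174.1 / NP_001041639), stably expressed under doxycycline induction in HEK-293 MUTYH knockout cells. Cells were co-transfected with an 8OG:A-bearing GFP repair reporter plus mCherry and sorted 72 h later into GFP+ and GFP− bins, three replicates per tile. The Rosace log2 enrichment (GFP+ vs GFP−) was converted per tile to a normalized function score with synonymous variants centered at 0 and nonsense variants (codons 1-471) at -1; low-abundance variants were removed.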

In order of falling “8OG:A repair function score” value:
1. S367N  0.179
2. T380R  0.162
3. Q435H  0.148
4. Q388P  0.145
5. L40F  0.134
6. V414C  0.129
7. L139V  0.0777
8. P34R  0.0769
9. S335H  0.0625
10. V107M  0.0622
11. L432W  0.0604
12. T122H  0.0576
13. A6V  0.0405
14. T346C  0.0316
15. R506P  0.0202
16. S344Q  0.019
17. S276K  0.0174
18. L268M  0.0171
19. Q450F  0.013
20. P494T  0.0124
21. T176D  0.00933
22. S515R  0.00703
23. A67Y  0.00691
24. R97A  0.00655
25. P488L  0.00539
26. A513G  0.0049
27. A305N  0.00434
28. S344T  0.00415
29. S55D  0.00222
30. F505A  0.00138
31. G123K  0.00116
32. N517R  9.97e-05
33. Q473C  6.68e-05
34. Q286K  -0.000545
35. Q470C  -0.00083
36. A305L  -0.00389
37. T460A  -0.00746
38. A513H  -0.0076
39. L295E  -0.0096
40. Q473A  -0.00985
41. R495F  -0.0118
42. T122C  -0.0157
43. D512E  -0.0165
44. L403M  -0.0231
45. S292R  -0.0254
46. V284K  -0.0279
47. T204R  -0.0298
48. Q286V  -0.0346
49. Q323M  -0.0348
50. D502I  -0.0355
51. E178S  -0.037
52. S55C  -0.043
53. P383C  -0.0431
54. V206I  -0.0438
55. G309M  -0.0498
56. L325I  -0.054
57. K463M  -0.0542
58. A431V  -0.0559
59. S54K  -0.0583
60. E287R  -0.0601
61. G297P  -0.0639
62. E433N  -0.0644
63. P338A  -0.066
64. S510N  -0.0738
65. K390F  -0.0738
66. P339I  -0.0749
67. T324Y  -0.0755
68. D77S  -0.0758
69. L325E  -0.08
70. H416A  -0.0865
71. V53N  -0.0892
72. G356K  -0.0901
73. N307Y  -0.0923
74. L313Y  -0.104
75. A354H  -0.107
76. L49W  -0.109
77. A245C  -0.113
78. E287Q  -0.114
79. E64K  -0.115
80. A67M  -0.118
81. R266V  -0.119
82. Q450L  -0.12
83. E140R  -0.124
84. E350G  -0.128
85. A147V  -0.14
86. S507Y  -0.141
87. D82H  -0.148
88. C347M  -0.15
89. R156I  -0.152
90. L131P  -0.153
91. R332C  -0.154
92. T424N  -0.156
93. M125L  -0.161
94. T324D  -0.162
95. L369S  -0.169
96. E350Y  -0.185
97. S153W  -0.198
98. S384C  -0.202
99. L134M  -0.216
100. V65D  -0.226
101. Q363K  -0.227
102. P244T  -0.234
103. P225N  -0.234
104. H454L  -0.234
105. G412A  -0.236
106. V114Y  -0.241
107. A400V  -0.246
108. E302R  -0.254
109. G356N  -0.277
110. V261F  -0.278
111. L234V  -0.29
112. W146T  -0.294
113. H410G  -0.298
114. P129M  -0.298
115. L73H  -0.344
116. A345N  -0.356
117. F59P  -0.371
118. P267C  -0.372
119. Y190C  -0.373
120. V230M  -0.387
121. H420R  -0.393
122. C311Y  -0.394
123. M125W  -0.408
124. C304Q  -0.421
125. A254N  -0.427
126. E375W  -0.45
127. E395F  -0.476
128. L411Q  -0.494
129. W235R  -0.496
130. Q388K  -0.55
131. R219A  -0.563
132. L403E  -0.596
133. L392Y  -0.624
134. L373R  -0.666
135. A259Y  -0.675
136. Y100F  -0.679
137. A259M  -0.739
138. D96K  -0.758
139. S105R  -0.765
140. V211G  -0.791
141. G148F  -0.794
142. S105D  -0.841
143. L241F  -0.872
144. A238Y  -0.881
145. G248H  -0.883
146. N251C  -0.884
147. L184S  -0.911
148. E256C  -0.939
149. L241N  -0.946
150. A259I  -0.953
151. A280P  -0.965
152. Y121L  -0.993
153. R219P  -1.02
154. V211P  -1.02
155. A253F  -1.03
156. P247K  -1.03
157. L373P  -1.03
158. P84R  -1.06
159. A99H  -1.07
160. A199D  -1.07
161. L257E  -1.08
162. G148P  -1.1
163. W374A  -1.1
164. W103S  -1.14
165. V348G  -1.15
166. W85S  -1.22
167. C262A  -1.38
